Measurements: PMC3380022, “Basic Residues R260 and K357 Affect the Conformational Dynamics of the Major Facilitator Superfamily Multidrug Transporter LmrP” (PLoS ONE, 2012)

Tests used:
[1] = test system: CC[n+]1c(-c2ccccc2)c2cc(N)ccc2c2ccc(N)cc21; assay: cells, lysate or membranes; settings: 50 mM KPi pH 7.0, 5 mM MgSO4, no proton-motive force, 0.25-10 µM ethidium bromide, non-expressing control subtracted
[2] = test system: CC[n+]1c(-c2ccccc2)c2cc(N)ccc2c2ccc(N)cc21; assay: facilitated ethidium influx in ATP-depleted cells, fluorimetry, hyperbolic fit; type: cell-based, Lactococcus lactis; settings: 50 mM KPi pH 7.0, 5 mM MgSO4, no proton-motive force, 0.25-10 µM ethidium bromide, non-expressing control subtracted

LmrP (Lactococcus lactis) showed a Km [1] of 0.92 ± 0.30 µM.
LmrP (Lactococcus lactis; R260A) gave a Km [2] of 1.49 ± 0.68 µM.
For LmrP (Lactococcus lactis; K357A), the Km [2] was 1.42 ± 0.29 µM.
